Laboratory results published in patent publication US20240343803A1 (SHANDONG SIMCERE BIOPHARMACEUTICAL, published 2024).
Values joined by “and” are separate entries in the source; they are usually repeats but may differ in a detail not shown here. Identical values can stand only once.

B1: TIGIT-005-H2L1 (antibody, V domains shown)
VH: EVQLVQSGAEVKKPGASVKVSCKASGYAFTNYLIEWVRQAPGQRLEWMGVINPGSGGTNYKEKFKGRVTITADKSSSTAYMELSSLRSEDTAVYYCARGEYFFFDYWGQGTTVTVSS
VL: DIVMTQSPDSLAVSLGERATINCKASQHVSNGVAWYQHKPGQSPKLLIYSASYRYTGVPDRFSGSGSGTDFTLTISSLQAEDVAVYYCQQHYNTPHTFGGGTKVEIK
notes: Humanized anti-TIGIT antibody
B2: PVRIG-A105-H1 (VHH)
VHH: EVQLVESGGGLVQPGGSLRLSCAASGRTFDRHTMSWFRQAPGKEREFVATASRIPGDTYYVDSVKGRFTISRDNAKNSLYLQMNSLRAEDTAVYYCAATSAYCSEVDCYEKGSWYDNWGQGTMVTVSS
notes: humanized VHH; also called A105.VH1

How the values were obtained:
[1] = target: T1, Fusion protein of extracellular domain of human TIGIT and His-tag (human TIGIT ECD-his) (human); test: BIAcore (second series); serves as reference of r34-r37
T1 chain: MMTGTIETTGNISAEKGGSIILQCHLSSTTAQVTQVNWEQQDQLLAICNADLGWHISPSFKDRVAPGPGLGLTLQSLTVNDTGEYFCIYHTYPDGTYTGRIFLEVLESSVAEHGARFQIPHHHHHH

[2] = target: T2, Fusion protein of extracellular domain of cynomolgus monkey TIGIT and mouse IgG2a Fc fragment (cynomolgus … (cynomolgus monkey)); test: ELISA, cynomolgus monkey TIGIT ECD-mFc
T2 construct: The entry includes the signal peptide (limits not recoverable) and the mouse IgG2a Fc
How it was run: (§1)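 Plates blocked with 5% skim milk-PBS at 37° C for 2-4 h. Test antibodies applied as a 12-point 3-fold series from 13 nM for 1.5-2 h at 37° C. Read-out: HRP secondary (1:5000, 1 h, 37° C), TMB colour for 7-10 min at room temperature, acid stop, absorbance at OD450 nm.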

[3] = target: T1, Fusion protein of extracellular domain …; test: BIAcore (second series)
[4] = target: T1, Fusion protein of extracellular domain …; test: BIAcore; KD ratio to TIGIT-CHI-005
[5] = target: T3, Fusion protein of extracellular domain of human TIGIT and human IgG1 Fc fragment (human TIGIT ECD-hFc) (human); test: blocking of TIGIT ECD-hFc binding to CHO-K1 CD155 cells
T3 construct: The entry includes the signal peptide (limits not recoverable) and the human IgG1 Fc
How it was run: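 IC50 values come from inhibition curves in a cell-based ELISA using CHO-K1 CD155 cells. Antibodies premixed for 0.5 h with human TIGIT ECD-hFc (working concentration 30 ng/mL) were added to the fixed, blocked cells for 1.5-2 h at 37° C. Bound TIGIT was then detected with HRP secondary antibody and TMB at OD450 nm.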

[6] = target: T4, Full-length human TIGIT on CHO-K1 cells (CHO-K1 human TIGIT) (human, UniProt Q495A1 22-244); test: cell binding, CHO-K1 human TIGIT high expression strain
T4 construct: NCBI XP_024309156.1; the entry includes the signal peptide (limits not recoverable); The strain (high, medium, low) is named under assay; also called high expression strain 1D2; medium expression strain 2D10
T4 sequence: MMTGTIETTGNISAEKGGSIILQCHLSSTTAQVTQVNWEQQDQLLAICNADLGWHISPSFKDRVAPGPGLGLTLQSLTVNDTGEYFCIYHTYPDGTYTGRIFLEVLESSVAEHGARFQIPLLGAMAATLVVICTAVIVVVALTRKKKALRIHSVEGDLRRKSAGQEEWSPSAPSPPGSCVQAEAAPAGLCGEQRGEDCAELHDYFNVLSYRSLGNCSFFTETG
How it was run: (§2)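 Binding was measured by flow cytometry after a 60-minute, 4° C incubation of the antibodies with 2×10⁵ CHO-K1 cells displaying full-length human or cynomolgus monkey TIGIT. Antibody titration: 12 points, threefold serial dilution from 80 nM, in 1% BSA-PBS.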

[7] = target: T5, Fusion protein of extracellular domain of human TIGIT and mouse IgG2a Fc fragment (human TIGIT ECD-mFc) (human); test: ELISA, human TIGIT ECD-mFc
T5 construct: The entry includes the signal peptide (limits not recoverable) and the mouse IgG2a Fc
T5 chain: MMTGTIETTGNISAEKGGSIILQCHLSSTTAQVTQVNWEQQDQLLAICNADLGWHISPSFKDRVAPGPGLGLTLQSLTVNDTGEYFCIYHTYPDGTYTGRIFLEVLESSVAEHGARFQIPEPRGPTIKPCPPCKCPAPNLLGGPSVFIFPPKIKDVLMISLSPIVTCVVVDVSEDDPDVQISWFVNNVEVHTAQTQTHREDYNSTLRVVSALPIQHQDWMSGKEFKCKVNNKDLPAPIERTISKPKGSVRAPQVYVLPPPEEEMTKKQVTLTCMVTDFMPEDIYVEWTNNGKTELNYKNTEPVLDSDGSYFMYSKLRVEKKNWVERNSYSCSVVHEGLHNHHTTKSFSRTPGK
How it was run: as §1

[8] = target: T1, Fusion protein of extracellular domain …; test: BIAcore
[9] = target: T6, Full-length cynomolgus monkey TIGIT on CHO-K1 cells (CHO-K1 cynomolgus monkey TIGIT) (cynomolgus monkey); test: cell binding, CHO-K1 cynomolgus monkey TIGIT
T6 construct: NCBI XP_015300911.1
T6 sequence (chain, as listed by the source limits assumed): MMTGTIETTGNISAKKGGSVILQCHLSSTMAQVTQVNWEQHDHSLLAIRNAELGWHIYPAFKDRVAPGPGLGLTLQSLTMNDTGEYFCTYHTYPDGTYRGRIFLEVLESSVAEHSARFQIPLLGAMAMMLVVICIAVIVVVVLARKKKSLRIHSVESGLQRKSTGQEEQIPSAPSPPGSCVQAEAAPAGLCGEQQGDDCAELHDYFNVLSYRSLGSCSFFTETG
How it was run: as §2

[10] = target: T7, human PVRIG on FlpinCHO-PVRIG cells (human, UniProt Q6DKI7 41-326); test: FACS, FlpinCHO-hPVRIG cells
T7 construct: whole, on cells; also called FlpinCHO-hPVRIG; FlpinCHO-human PVRIG
T7 sequence (looked up): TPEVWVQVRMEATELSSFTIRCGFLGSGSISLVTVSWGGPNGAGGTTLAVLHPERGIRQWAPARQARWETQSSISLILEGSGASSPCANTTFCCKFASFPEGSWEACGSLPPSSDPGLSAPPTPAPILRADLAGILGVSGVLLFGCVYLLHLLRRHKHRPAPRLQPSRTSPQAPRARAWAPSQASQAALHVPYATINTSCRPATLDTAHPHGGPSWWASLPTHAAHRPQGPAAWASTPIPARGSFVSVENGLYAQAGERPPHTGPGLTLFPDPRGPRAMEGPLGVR
Description: (§3) CHO-K1 stable cells ([…]-61™) transfected with human or cynomolgus monkey PVRIG high expression plasmids were named FlpinCHO-hPVRIG and FlpinCHO-cynoPVRIG. […] After discarding the cell culture medium, the cells were rinsed with PBS and digested for 8-10 minutes by adding 1 mL Versene (Gibico, 15040-066). The Ham's F12 (Gibico, 21127-022) complete medium containing 10% FBS was then added to terminate the digestion and acquire cell suspension. After cell counting, an appropriate amount of cell suspension was centrifuged at 350×g to remove the supernatant, washed twice with PBS, stained with Zombie violet (Biolegend, 423114) and incubated at room temperature for 20 minutes. After incubation, the cells were added with staining buffer (2% FBS+PBS) to stop staining, centrifuged at 350×g to remove the supernatant, washed twice and resuspended with staining buffer to a density of 2×10⁶ cells/mL. The cells were plated into a 96-well plate (50 μL of cell suspension per well) for further use. The antibodies were diluted from the highest concentration of 46 nM (two-fold concentration) with staining buffer by 3.3-fold serial dilution. The diluted antibodies were added to the well containing 50 μL of cell suspension. […] After staining, the cells were washed twice with staining buffer, finally resuspended with 200 μL staining buffer and analyzed by flow cytometry (BD, Canto II).

[11] = target: T8, human PVRIG-mFc protein (Acro, PVG-H5253) (human, UniProt Q6DKI7 41-171, limits assumed); test: competition FACS; blocked: PVRIG-mFc binding to CHO-K1 CD112 cells
T8 construct: bought reagent; also called PVRIG-ECD-mFc
T8 sequence (looked up): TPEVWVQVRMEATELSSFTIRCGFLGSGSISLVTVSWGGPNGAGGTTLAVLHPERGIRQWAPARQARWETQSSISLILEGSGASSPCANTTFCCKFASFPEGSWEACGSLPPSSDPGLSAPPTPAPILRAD
Description: The Ham's F12 (Gibico, 21127-022) complete medium containing 10% FBS was then added to stop the digestion and acquire cell suspension. After counting with a cell counter (Beckman Coulter, Vi-CELL), an appropriate amount of cell suspension was centrifuged at 350×g to remove the supernatant, washed twice with PBS, stained with Zombie violet (Biolegend, 423114) and incubated at room temperature for 20 minutes. After incubation, the cells were added with staining buffer (2% FBS+PBS) to stop staining, centrifuged at 350×g to remove the supernatant, washed twice and resuspended with staining buffer to a density of 2×10⁶ cells/mL. The cells were plated into a 96-well plate (50 μL of cell suspension per well) for further use. A working solution of human PVRIG-mFc protein (Acro, PVG-H5253) prepared with staining buffer, 1 μg/mL (four-fold concentration), was added into a 96-well plate (50 μL PVRIG-mFc working solution per well). […] The diluted antibodies were added to the well containing 50 μL of PVRIG-mFc. The plate was placed on a microplate shaker at 400 rpm for 1 minute to fully mix the antibodies and PVRIG-mFc proteins, and then incubated at 4° C. for 30 minutes. After the incubation, the cell suspension prepared above (100 μL) was added into the wells, gently mixed with the pipette tip and incubated at 4° C. for 30 minutes. After the incubation, the cells were washed twice with staining buffer (200 μL per well) and centrifuged at 350×g for 5 minutes to discard the supernatant. The PE goat anti-mouse IgG Fc antibody (Biolegend, 405337) was diluted 250 times with staining buffer, added into the washed wells (100 μL per well), mixed well, and stained at 4° C. for 30 minutes. After staining, the cells were washed twice with staining buffer, finally resuspended with 200 μL staining buffer and analyzed by flow cytometry (BD, Canto II). The weaker the fluorescence signal, the stronger the ability of the antibodies blocks the binding of CHO-K1 human CD112 cells to the PVRIG-mFc protein.

[12] = target: T9, cynomolgus monkey PVRIG on FlpinCHO-cyno PVRIG cells (cynomolgus monkey, UniProt A0A2K5WVV8 41-322); test: FACS, FlpinCHO cynomolgus monkey PVRIG cells
T9 construct: whole, on cells; also called FlpinCHO-cynomolgus monkey PVRIG
T9 sequence: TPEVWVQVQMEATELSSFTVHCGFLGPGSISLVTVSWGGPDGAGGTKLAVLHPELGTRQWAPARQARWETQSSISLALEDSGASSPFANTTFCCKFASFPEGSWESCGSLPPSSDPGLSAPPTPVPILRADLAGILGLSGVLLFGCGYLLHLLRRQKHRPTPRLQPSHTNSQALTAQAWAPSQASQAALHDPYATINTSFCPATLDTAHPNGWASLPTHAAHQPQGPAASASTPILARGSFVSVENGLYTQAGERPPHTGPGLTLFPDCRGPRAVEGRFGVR
Description: as §3

Binder | Fold change vs chimeric antibodies (KD) [1] | EC50 [2] | Kd [3] | koff [3] | kon [3] | Fold change vs chimeric antibodies (KD) [4] | IC50 [5] | EC50 [6] | EC50 [7] | Kd [8] | koff [8] | kon [8] | EC50 [9] | EC50 (read off the curve) [10] | IC50 (read off the curve) [11] | EC50 (read off the curve) [12]
B1 | 1 fold | 0.0145 nM and 0.0393 nM | 0.0742 nM | 0.000263 s⁻¹ | 3.54e+06 M⁻¹ s⁻¹ | 1.37 fold | 0.321 nM and 0.389 nM | 0.0281 nM and 0.0272 nM | 0.0141 nM and 0.0247 nM | 0.0378 nM | 0.000161 s⁻¹ | 4.26e+06 M⁻¹ s⁻¹ | 0.0199 nM and 0.047 nM | – | – | –
B2 | – | – | – | – | – | – | – | – | – | – | – | – | – | ~0.5 nM | ~1 nM | ~0.4 nM
